Assay in all cases: ITC
In general terms: In ITC the heat of successive injections is recorded.

Experiment [1] has as its target T1, Ankyrin-G 24 ANK repeats (residues 38-855) (UniProt O70511 38-855).
T1 chain: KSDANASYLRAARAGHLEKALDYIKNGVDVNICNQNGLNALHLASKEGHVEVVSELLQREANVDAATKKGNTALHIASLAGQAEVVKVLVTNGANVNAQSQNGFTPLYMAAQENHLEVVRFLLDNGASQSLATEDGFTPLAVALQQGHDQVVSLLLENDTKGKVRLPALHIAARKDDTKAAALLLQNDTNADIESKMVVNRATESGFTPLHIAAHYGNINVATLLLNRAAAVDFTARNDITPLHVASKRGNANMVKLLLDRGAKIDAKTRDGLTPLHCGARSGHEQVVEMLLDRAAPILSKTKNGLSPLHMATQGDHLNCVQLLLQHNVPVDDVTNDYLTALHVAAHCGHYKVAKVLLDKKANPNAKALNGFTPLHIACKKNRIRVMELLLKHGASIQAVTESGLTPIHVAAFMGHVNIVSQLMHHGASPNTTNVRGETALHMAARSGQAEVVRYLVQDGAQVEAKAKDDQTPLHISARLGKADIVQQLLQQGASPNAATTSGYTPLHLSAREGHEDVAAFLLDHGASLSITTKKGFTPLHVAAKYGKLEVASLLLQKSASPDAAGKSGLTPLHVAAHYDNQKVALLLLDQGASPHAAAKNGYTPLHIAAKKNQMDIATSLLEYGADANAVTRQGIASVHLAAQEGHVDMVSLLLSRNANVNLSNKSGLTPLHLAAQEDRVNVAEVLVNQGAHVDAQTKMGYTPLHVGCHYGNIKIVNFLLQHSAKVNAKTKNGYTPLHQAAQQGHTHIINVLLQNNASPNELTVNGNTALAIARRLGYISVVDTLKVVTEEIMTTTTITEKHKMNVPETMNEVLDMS

In experiment [2] the target is T2, full-length β-catenin 1-781 (mouse, UniProt Q02248 1-781).
T2 chain: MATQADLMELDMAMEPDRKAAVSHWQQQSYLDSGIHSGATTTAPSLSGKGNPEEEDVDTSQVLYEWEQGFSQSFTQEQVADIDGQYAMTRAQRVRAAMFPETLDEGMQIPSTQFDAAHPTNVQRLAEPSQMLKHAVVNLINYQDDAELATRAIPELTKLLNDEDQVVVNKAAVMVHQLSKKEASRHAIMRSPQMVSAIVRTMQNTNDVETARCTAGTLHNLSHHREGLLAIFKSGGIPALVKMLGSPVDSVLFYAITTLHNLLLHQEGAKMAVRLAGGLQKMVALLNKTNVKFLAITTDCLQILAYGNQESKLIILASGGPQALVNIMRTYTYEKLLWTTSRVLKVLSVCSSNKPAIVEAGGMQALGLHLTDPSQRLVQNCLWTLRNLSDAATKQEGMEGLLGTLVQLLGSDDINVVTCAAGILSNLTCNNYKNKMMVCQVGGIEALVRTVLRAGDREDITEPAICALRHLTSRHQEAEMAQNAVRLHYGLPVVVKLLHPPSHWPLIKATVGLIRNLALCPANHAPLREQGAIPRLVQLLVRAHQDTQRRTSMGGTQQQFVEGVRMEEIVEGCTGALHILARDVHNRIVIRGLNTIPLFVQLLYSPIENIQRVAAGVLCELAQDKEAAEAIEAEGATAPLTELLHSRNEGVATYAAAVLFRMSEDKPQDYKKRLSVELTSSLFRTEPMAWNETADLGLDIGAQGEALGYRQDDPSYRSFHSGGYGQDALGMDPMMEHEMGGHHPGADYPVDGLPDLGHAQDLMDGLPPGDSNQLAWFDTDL

Experiment [3] deals with T2, full-length β-catenin 1-781.

Read-outs that look alike come from different tables or passages of the source.

B1: E-cadherin CTD–β-catenin complex (complex)
chain 1: not shown
chain 2: MATQADLMELDMAMEPDRKAAVSHWQQQSYLDSGIHSGATTTAPSLSGKGNPEEEDVDTSQVLYEWEQGFSQSFTQEQVADIDGQYAMTRAQRVRAAMFPETLDEGMQIPSTQFDAAHPTNVQRLAEPSQMLKHAVVNLINYQDDAELATRAIPELTKLLNDEDQVVVNKAAVMVHQLSKKEASRHAIMRSPQMVSAIVRTMQNTNDVETARCTAGTLHNLSHHREGLLAIFKSGGIPALVKMLGSPVDSVLFYAITTLHNLLLHQEGAKMAVRLAGGLQKMVALLNKTNVKFLAITTDCLQILAYGNQESKLIILASGGPQALVNIMRTYTYEKLLWTTSRVLKVLSVCSSNKPAIVEAGGMQALGLHLTDPSQRLVQNCLWTLRNLSDAATKQEGMEGLLGTLVQLLGSDDINVVTCAAGILSNLTCNNYKNKMMVCQVGGIEALVRTVLRAGDREDITEPAICALRHLTSRHQEAEMAQNAVRLHYGLPVVVKLLHPPSHWPLIKATVGLIRNLALCPANHAPLREQGAIPRLVQLLVRAHQDTQRRTSMGGTQQQFVEGVRMEEIVEGCTGALHILARDVHNRIVIRGLNTIPLFVQLLYSPIENIQRVAAGVLCELAQDKEAAEAIEAEGATAPLTELLHSRNEGVATYAAAVLFRMSEDKPQDYKKRLSVELTSSLFRTEPMAWNETADLGLDIGAQGEALGYRQDDPSYRSFHSGGYGQDALGMDPMMEHEMGGHHPGADYPVDGLPDLGHAQDLMDGLPPGDSNQLAWFDTDL
Regarding B1, the equilibrium dissociation constant (Kd) in experiment [1] amounted to 600 nM.

B2: E-cadherin 776-884–β-catenin complex (protein)
chain 1: not shown
chain 2: MATQADLMELDMAMEPDRKAAVSHWQQQSYLDSGIHSGATTTAPSLSGKGNPEEEDVDTSQVLYEWEQGFSQSFTQEQVADIDGQYAMTRAQRVRAAMFPETLDEGMQIPSTQFDAAHPTNVQRLAEPSQMLKHAVVNLINYQDDAELATRAIPELTKLLNDEDQVVVNKAAVMVHQLSKKEASRHAIMRSPQMVSAIVRTMQNTNDVETARCTAGTLHNLSHHREGLLAIFKSGGIPALVKMLGSPVDSVLFYAITTLHNLLLHQEGAKMAVRLAGGLQKMVALLNKTNVKFLAITTDCLQILAYGNQESKLIILASGGPQALVNIMRTYTYEKLLWTTSRVLKVLSVCSSNKPAIVEAGGMQALGLHLTDPSQRLVQNCLWTLRNLSDAATKQEGMEGLLGTLVQLLGSDDINVVTCAAGILSNLTCNNYKNKMMVCQVGGIEALVRTVLRAGDREDITEPAICALRHLTSRHQEAEMAQNAVRLHYGLPVVVKLLHPPSHWPLIKATVGLIRNLALCPANHAPLREQGAIPRLVQLLVRAHQDTQRRTSMGGTQQQFVEGVRMEEIVEGCTGALHILARDVHNRIVIRGLNTIPLFVQLLYSPIENIQRVAAGVLCELAQDKEAAEAIEAEGATAPLTELLHSRNEGVATYAAAVLFRMSEDKPQDYKKRLSVELTSSLFRTEPMAWNETADLGLDIGAQGEALGYRQDDPSYRSFHSGGYGQDALGMDPMMEHEMGGHHPGADYPVDGLPDLGHAQDLMDGLPPGDSNQLAWFDTDL
With B2, the Kd in experiment [1] worked out at 1200 nM. This Kd lies about 2-fold higher than the previous one.

B3: E-cadherin 776-884–AnkG R1-24 complex (complex)
chain 1: not shown
chain 2: KSDANASYLRAARAGHLEKALDYIKNGVDVNICNQNGLNALHLASKEGHVEVVSELLQREANVDAATKKGNTALHIASLAGQAEVVKVLVTNGANVNAQSQNGFTPLYMAAQENHLEVVRFLLDNGASQSLATEDGFTPLAVALQQGHDQVVSLLLENDTKGKVRLPALHIAARKDDTKAAALLLQNDTNADIESKMVVNRATESGFTPLHIAAHYGNINVATLLLNRAAAVDFTARNDITPLHVASKRGNANMVKLLLDRGAKIDAKTRDGLTPLHCGARSGHEQVVEMLLDRAAPILSKTKNGLSPLHMATQGDHLNCVQLLLQHNVPVDDVTNDYLTALHVAAHCGHYKVAKVLLDKKANPNAKALNGFTPLHIACKKNRIRVMELLLKHGASIQAVTESGLTPIHVAAFMGHVNIVSQLMHHGASPNTTNVRGETALHMAARSGQAEVVRYLVQDGAQVEAKAKDDQTPLHISARLGKADIVQQLLQQGASPNAATTSGYTPLHLSAREGHEDVAAFLLDHGASLSITTKKGFTPLHVAAKYGKLEVASLLLQKSASPDAAGKSGLTPLHVAAHYDNQKVALLLLDQGASPHAAAKNGYTPLHIAAKKNQMDIATSLLEYGADANAVTRQGIASVHLAAQEGHVDMVSLLLSRNANVNLSNKSGLTPLHLAAQEDRVNVAEVLVNQGAHVDAQTKMGYTPLHVGCHYGNIKIVNFLLQHSAKVNAKTKNGYTPLHQAAQQGHTHIINVLLQNNASPNELTVNGNTALAIARRLGYISVVDTLKVVTEEIMTTTTITEKHKMNVPETMNEVLDMS
With B3, the affinity in experiment [2], expressed as Kd, was 80 nM. This lies in the double-digit nanomolar range.

B4: E-cadherin CTD–AnkG R1-24 complex (complex)
chain 1: not shown
chain 2: KSDANASYLRAARAGHLEKALDYIKNGVDVNICNQNGLNALHLASKEGHVEVVSELLQREANVDAATKKGNTALHIASLAGQAEVVKVLVTNGANVNAQSQNGFTPLYMAAQENHLEVVRFLLDNGASQSLATEDGFTPLAVALQQGHDQVVSLLLENDTKGKVRLPALHIAARKDDTKAAALLLQNDTNADIESKMVVNRATESGFTPLHIAAHYGNINVATLLLNRAAAVDFTARNDITPLHVASKRGNANMVKLLLDRGAKIDAKTRDGLTPLHCGARSGHEQVVEMLLDRAAPILSKTKNGLSPLHMATQGDHLNCVQLLLQHNVPVDDVTNDYLTALHVAAHCGHYKVAKVLLDKKANPNAKALNGFTPLHIACKKNRIRVMELLLKHGASIQAVTESGLTPIHVAAFMGHVNIVSQLMHHGASPNTTNVRGETALHMAARSGQAEVVRYLVQDGAQVEAKAKDDQTPLHISARLGKADIVQQLLQQGASPNAATTSGYTPLHLSAREGHEDVAAFLLDHGASLSITTKKGFTPLHVAAKYGKLEVASLLLQKSASPDAAGKSGLTPLHVAAHYDNQKVALLLLDQGASPHAAAKNGYTPLHIAAKKNQMDIATSLLEYGADANAVTRQGIASVHLAAQEGHVDMVSLLLSRNANVNLSNKSGLTPLHLAAQEDRVNVAEVLVNQGAHVDAQTKMGYTPLHVGCHYGNIKIVNFLLQHSAKVNAKTKNGYTPLHQAAQQGHTHIINVLLQNNASPNELTVNGNTALAIARRLGYISVVDTLKVVTEEIMTTTTITEKHKMNVPETMNEVLDMS
In experiment [3], B4 showed an equilibrium dissociation constant (Kd) of 98 nM.

What is called Kd is the free concentration of one partner at which half of the binding sites on the other are occupied at equilibrium, for simple one-to-one binding. A lower Kd goes with higher affinity.

The values above are taken from PMC10611751 (2023).
